From publication PMC10039067, “Temporal and spatial assembly of inner ear hair cell ankle link condensate through phase separation” (Nature Communications, 2023)
Values joined by “and” are separate entries in the source; they are usually repeats but may differ in a detail not shown here. Equal values may be shown once. Read-outs that look alike come from different tables or passages of the source. Values belong to the molecule of their own block, whether it stands above or below them.

B1: WHRN NPDZ12 (domain or fragment, UniProt Q9P202 33-377, looked up)
chain: RLLSANVRQLHQALTALLSEAEREQFTHCLNAYHARRNVFDLVRTLRVLLDSPVKRRLLPMLRLVIPRSDQLLFDQYTAEGLYLPATTPYRQPAWGGPDSAGPGEVRLVSLRRAKAHEGLGFSIRGGSEHGVGIYVSLVEPGSLAEKEGLRVGDQILRVNDKSLARVTHAEAVKALKGSKKLVLSVYSAGRIPGGYVTNHIYTWVDPQGRSISPPSGLPQPHGGALRQQEGDRRSTLHLLQGGDEKKVNLVLGDGRSLGLTIRGGAEYGLGIYITGVDPGSEAEGSGLKVGDQILEVNGRSFLNILHDEAVRLLKSSRHLILTVKDVGRLPHARTTVDETKWIAS
notes: WHRN, residues 33-377 (NTD, PDZ1 and PDZ2) of UniProtKB Q9P202; Cloned into pET.32M.3C; Named Trx-WHRN NPDZ12 in SEC-MALS; also called Trx-WHRN NPDZ12; Whirlin; source: E. coli BL21 (DE3), purified (Ni2+-NTA, size-exclusion chromatography); not shown: Trx, N-terminal, kept

Assays:
WHRN NPDZ12 [1] = molecular target: B1; test: ITC; MicroCal iTC200, 25 °C; 50 mM tris pH 7.5-8.0, 300 mM NaCl, 1 mM DTT, 1 mM EDTA; cell 20–50 µM, syringe 400–800 µM; one-site binding model
[2] = molecular target: the molecule itself; test: SEC-MALS; single proteins at 50 μM; Superose 12 10/300 GL or Superdex 200 increase 10/300 GL; 50 mM tris, 300 mM NaCl, 1 mM DTT, 1 mM EDTA
WHRN NPDZ1 [3] = molecular target: T1, WHRN NPDZ1 (UniProt Q9P202 33-239); test: ITC
T1 chain: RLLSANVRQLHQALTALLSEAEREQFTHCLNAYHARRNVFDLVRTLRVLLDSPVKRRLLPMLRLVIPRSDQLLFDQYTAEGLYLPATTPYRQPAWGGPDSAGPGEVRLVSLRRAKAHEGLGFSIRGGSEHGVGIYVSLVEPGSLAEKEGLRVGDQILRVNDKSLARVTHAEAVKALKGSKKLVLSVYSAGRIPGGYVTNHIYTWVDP

WHRN NTD = molecular target: T2, WHRN NTD (UniProt Q9P202 33-117); test: ITC
T2 chain: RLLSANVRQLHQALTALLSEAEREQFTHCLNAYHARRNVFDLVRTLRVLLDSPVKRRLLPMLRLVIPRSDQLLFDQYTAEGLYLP

WHRN NPDZ12 [4] = molecular target: B1; test: SEC-MALS; mixtures, each component around 30 µM; Superose 12 10/300 GL or Superdex 200 increase 10/300 GL; 50 mM tris, 300 mM NaCl, 1 mM DTT, 1 mM EDTA
WHRN NPDZ12 A64D = molecular target: T3, WHRN NPDZ12 A64D (UniProt Q9P202 33-377, A64D); test: ITC; MicroCal iTC200, 25 °C; 50 mM tris pH 7.5-8.0, 300 mM NaCl, 1 mM DTT, 1 mM EDTA; cell 20–50 µM, syringe 400–800 µM; one-site binding model
T3 construct: WHRN, residues 33-377 of UniProtKB Q9P202 with the deafness-related mutation A64D; Mutant made by PCR-based mutagenesis; the ClinVar ids are tied to the mutations by their printed order; source: E. coli BL21 (DE3), purified (Ni2+-NTA, size-exclusion chromatography)
T3 sequence (looked up): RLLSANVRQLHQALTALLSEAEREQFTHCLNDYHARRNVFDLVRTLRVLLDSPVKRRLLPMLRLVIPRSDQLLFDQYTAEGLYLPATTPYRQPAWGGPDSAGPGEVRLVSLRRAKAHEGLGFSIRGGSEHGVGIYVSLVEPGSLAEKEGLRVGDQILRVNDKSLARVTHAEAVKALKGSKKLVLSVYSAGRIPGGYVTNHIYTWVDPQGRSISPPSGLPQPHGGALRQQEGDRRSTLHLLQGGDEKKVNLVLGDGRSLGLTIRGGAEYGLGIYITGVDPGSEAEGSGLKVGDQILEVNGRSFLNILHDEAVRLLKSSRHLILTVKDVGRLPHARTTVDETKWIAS

WHRN NPDZ12 T110A = molecular target: T4, WHRN NPDZ12 T110A (UniProt Q9P202 33-377, T110A); test: as above
T4 construct: WHRN, residues 33-377 of UniProtKB Q9P202 with the deafness-related mutation T110A; source: E. coli BL21 (DE3), purified (Ni2+-NTA, size-exclusion chromatography)
T4 sequence (looked up): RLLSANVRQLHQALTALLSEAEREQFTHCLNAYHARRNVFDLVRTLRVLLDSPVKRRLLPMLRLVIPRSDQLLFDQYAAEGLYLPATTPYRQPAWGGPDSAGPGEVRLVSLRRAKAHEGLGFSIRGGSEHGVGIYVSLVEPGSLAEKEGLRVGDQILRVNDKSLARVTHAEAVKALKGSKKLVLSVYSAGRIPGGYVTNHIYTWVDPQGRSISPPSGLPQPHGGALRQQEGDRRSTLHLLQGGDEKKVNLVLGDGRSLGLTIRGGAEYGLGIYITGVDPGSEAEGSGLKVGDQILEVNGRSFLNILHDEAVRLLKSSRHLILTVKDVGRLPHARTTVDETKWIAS

WHRN NPDZ12 R223H = molecular target: T5, WHRN NPDZ12 R223H (UniProt Q9P202 33-377, R223H); test: as above
T5 construct: WHRN, residues 33-377 of UniProtKB Q9P202 with the deafness-related mutation R223H; source: E. coli BL21 (DE3), purified (Ni2+-NTA, size-exclusion chromatography)
T5 sequence (looked up): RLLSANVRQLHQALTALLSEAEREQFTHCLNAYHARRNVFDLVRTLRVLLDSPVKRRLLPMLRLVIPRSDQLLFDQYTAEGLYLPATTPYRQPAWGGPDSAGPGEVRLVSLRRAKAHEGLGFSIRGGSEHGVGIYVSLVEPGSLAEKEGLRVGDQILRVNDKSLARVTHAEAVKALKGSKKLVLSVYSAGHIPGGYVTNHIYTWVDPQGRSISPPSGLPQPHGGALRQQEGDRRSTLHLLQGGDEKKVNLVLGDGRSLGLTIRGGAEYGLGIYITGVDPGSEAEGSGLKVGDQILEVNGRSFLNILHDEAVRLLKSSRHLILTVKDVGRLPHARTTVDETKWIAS

PDZD7 PDZ12 G228R = molecular target: T6, PDZD7 PDZ12 G228R (UniProt E9Q9W7 84-289, G228R); test: ITC
T6 sequence: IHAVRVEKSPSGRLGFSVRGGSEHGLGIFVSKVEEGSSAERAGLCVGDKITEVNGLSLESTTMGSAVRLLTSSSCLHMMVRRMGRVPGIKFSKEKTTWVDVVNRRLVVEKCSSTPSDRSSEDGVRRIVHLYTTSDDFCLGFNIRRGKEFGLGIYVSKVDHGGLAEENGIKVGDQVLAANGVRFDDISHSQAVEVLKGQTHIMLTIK

PDZD7 PDZ12 M285R = molecular target: T7, PDZD7 PDZ12 M285R (UniProt E9Q9W7 84-289, M285R); test: ITC
T7 sequence: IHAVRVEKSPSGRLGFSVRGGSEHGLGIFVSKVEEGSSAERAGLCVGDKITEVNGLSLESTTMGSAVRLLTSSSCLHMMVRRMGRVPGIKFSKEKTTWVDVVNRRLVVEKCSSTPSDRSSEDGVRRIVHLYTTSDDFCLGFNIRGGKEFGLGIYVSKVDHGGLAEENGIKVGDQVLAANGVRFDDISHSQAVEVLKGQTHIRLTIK

PDZD7 PDZ1 = PDZD7 PDZ1 (UniProt E9Q9W7); test: ITC; MicroCal iTC200, 25 °C; 50 mM tris pH 7.5-8.0, 300 mM NaCl, 1 mM DTT, 1 mM EDTA; cell 20–50 µM, syringe 400–800 µM; one-site binding model
PDZD7 PDZ1, sequence (E9Q9W7 81-167): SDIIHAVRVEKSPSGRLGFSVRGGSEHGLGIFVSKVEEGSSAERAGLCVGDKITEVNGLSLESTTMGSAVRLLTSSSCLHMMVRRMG

PDZD7 PDZ12 = PDZD7 PDZ12 (UniProt E9Q9W7); test: as above
WHRN PDZ1 = WHRN PDZ1 (UniProt Q9P202); test: as above
WHRN NPDZ1 [5] = molecular target: T1, WHRN NPDZ1; test: as above
USH2A-CT = USH2A-CT (UniProt Q2QI47); test: SEC-MALS; single proteins at 50 μM; Superose 12 10/300 GL or Superdex 200 increase 10/300 GL; 50 mM tris, 300 mM NaCl, 1 mM DTT, 1 mM EDTA

Kd (WHRN NPDZ12 [1]): 9.5 µM
Molecule: ADGRV1-CT △PBM (from UniProt Q8VHN7 6239-6298) (domain or fragment)

Molecule: B1
stoichiometry N [2]: 2

Kd (WHRN NPDZ1 [3]): 9 µM
Kd (WHRN NTD): 31 µM
Kd (WHRN NPDZ12 A64D; both partners purified): 0.41 µM
Kd (WHRN NPDZ12 T110A; both partners purified): 0.55 µM
Kd (WHRN NPDZ12 [1]; both partners purified): ~1.4 µM
Kd (WHRN NPDZ12 R223H; both partners purified): 3.3 µM
B2: ADGRV1-CT (domain or fragment, UniProt Q8VHN7 6239-6298, looked up)
chain: GSLIADEESQEFDDLIFALKTGAGLSVSDNESGQGSQEGGTLTDSQIVELRRIPIADTHL
notes: ADGRV1 cytoplasmic region, residues 6239-6298 of UniProtKB Q8VHN7; Named Trx-ADGRV1-CT in SEC-MALS; also called Trx-ADGRV1-CT; VLGR1-CT; source: E. coli BL21 (DE3), purified (Ni2+-NTA, size-exclusion chromatography); not shown: Trx, N-terminal, kept
stoichiometry N (WHRN NPDZ12 [4]; both partners purified): 2 copies per WHRN dimer and 1 copy per WHRN dimer (three proteins mixed)

B3: WHRN NTD (domain or fragment, UniProt Q9P202 33-117, looked up)
chain: RLLSANVRQLHQALTALLSEAEREQFTHCLNAYHARRNVFDLVRTLRVLLDSPVKRRLLPMLRLVIPRSDQLLFDQYTAEGLYLP
notes: WHRN N-terminal domain, residues 33-117 of UniProtKB Q9P202; also called N-terminal domain; HHD1; source: E. coli BL21 (DE3), purified (Ni2+-NTA, size-exclusion chromatography)
binding result [2]: binds

Kd (PDZD7 PDZ12 G228R): 56 µM
Kd (PDZD7 PDZ12 M285R): 8.5 µM
stoichiometry N (copies per WHRN dimer) (WHRN NPDZ12 [4]): 2
stoichiometry N (WHRN NPDZ12 [4]; scale: copy per WHRN dimer): 1
Kd (PDZD7 PDZ1): 66 µM
Kd (PDZD7 PDZ12): 15 µM
Kd (WHRN NPDZ12 A64D): 5.5 µM
Kd (WHRN NPDZ12 T110A): 16 µM
Kd (WHRN NPDZ12 [1]): 2.7 µM
Kd (WHRN NPDZ12 R223H): 4.7 µM
Molecule: GHSSGLYVDEEELMNAIKGFSSVTKEHTAFTDTHL (domain or fragment) [USH2A-CT (Short, S)]

Kd (WHRN NTD): 19 µM
Kd (WHRN PDZ1): 1.2 µM
Kd (WHRN NPDZ1 [5]): 5.1 µM
stoichiometry N (USH2A-CT): 2
Kd (WHRN NPDZ12 [1]): 0.68 µM
B4: USH2A-CT (domain or fragment)
chain: PSQSQLSHAYSQSSLHRSVSQLMDMADKKVVTEDSLWETIMGHSSGLYVDEEELMNAIKGFSSVTKEHTAFTDTHL
